Experimental data reported in article PMC4976356, “Structural insight into β-Clamp and its interaction with DNA Ligase in Helicobacter pylori” (Scientific Reports, 2016).

Key:
[1] = biological target: the molecule itself; experiment: SEC; gel filtration on HiLoad G200 16/60; 30 mM Tris pH 7.5, 150 mM NaCl, 5% glycerol, 30 mM arginine, 6 mM βMe
[2] = biological target: T1, NAD-dependent DNA ligase from Helicobacter pylori 26695 (Helicobacter pylori 26695, UniProt O25336 1-656); conditions: both partners purified
T1 construct: Cloned and expressed in a similar manner to the β-clamp (NcoI/XhoI, pET 28(b)); by the printed forward primer Met-Gly would stand before Met1, and the reverse primer has no stop codon, so a C-terminal vector His tag is likely (surmised); also called HpDNA ligase; Hpligase; source: E. coli BL21, purified (Ni Sepharose, HiLoad G200 gel filtration)

B1: β-clamp from Helicobacter pylori 26695 (natural protein, UniProt O25242 1-374, looked up)
chain: MKISVSKNDLENALRYLQAFLDKKDASSIASHIHLEVIKEKLFLKASDSDIGLKSYIFTQSSDKEGVGTINGKKFLDIISCLKDSNIILETKDDSLAIKQNKSSFKLPMFDADEFPEFPVIDPKVSIEVNAPFLVDAFKKIAPVIEQTSHKRELAGILMQFDQKHQTLSVVGTDTKRLSYTQLEKISIHSTEEDISCILPKRALLEILKLFYENFSFKSDGMLAVIENEMHTFFTKLIDGNYPDYQKILPKEYISSFTLGKEEFKESIKLCSSLSSTIKLTLEKNNALFESLDSEHSETAKTSVEIEKGLDIEKAFHLGVNAKFFLEALNALGTTQFVLRCNEPSSPFLIQESLDEKQSHLNAKISTLMMPITL
notes: DNA polymerase III beta subunit (β-clamp) of Helicobacter pylori 26695; domains I-III span Met1 to Leu374; Cloned between NcoI and XhoI of pET 28(b); the reverse primer has no stop codon, so a C-terminal vector His tag is likely (surmised); By the printed forward primer the ATG of the NcoI site is out of frame with the gene's own ATG; also called Hpβ-clamp; H. pylori β-clamp; source: E. coli …
- stoichiometry N [1]: 2
- Kd [2]: 1250 nM
